From US20240368288A1 (HEMOGENYX PHARMACEUTICALS, published 2024)
Several values for one entry are separate records, joined by “and”; a condition that tells them apart may be missing. Equal entries are not always repeated.

T1: human FLT3 (Fms Related Receptor Tyrosine Kinase 3) expressed on cells (human, UniProt P36888 27-993)
T1 construct: whole, on cells; Same entry used for all cell lines; also called FLK2
T1 sequence (looked up): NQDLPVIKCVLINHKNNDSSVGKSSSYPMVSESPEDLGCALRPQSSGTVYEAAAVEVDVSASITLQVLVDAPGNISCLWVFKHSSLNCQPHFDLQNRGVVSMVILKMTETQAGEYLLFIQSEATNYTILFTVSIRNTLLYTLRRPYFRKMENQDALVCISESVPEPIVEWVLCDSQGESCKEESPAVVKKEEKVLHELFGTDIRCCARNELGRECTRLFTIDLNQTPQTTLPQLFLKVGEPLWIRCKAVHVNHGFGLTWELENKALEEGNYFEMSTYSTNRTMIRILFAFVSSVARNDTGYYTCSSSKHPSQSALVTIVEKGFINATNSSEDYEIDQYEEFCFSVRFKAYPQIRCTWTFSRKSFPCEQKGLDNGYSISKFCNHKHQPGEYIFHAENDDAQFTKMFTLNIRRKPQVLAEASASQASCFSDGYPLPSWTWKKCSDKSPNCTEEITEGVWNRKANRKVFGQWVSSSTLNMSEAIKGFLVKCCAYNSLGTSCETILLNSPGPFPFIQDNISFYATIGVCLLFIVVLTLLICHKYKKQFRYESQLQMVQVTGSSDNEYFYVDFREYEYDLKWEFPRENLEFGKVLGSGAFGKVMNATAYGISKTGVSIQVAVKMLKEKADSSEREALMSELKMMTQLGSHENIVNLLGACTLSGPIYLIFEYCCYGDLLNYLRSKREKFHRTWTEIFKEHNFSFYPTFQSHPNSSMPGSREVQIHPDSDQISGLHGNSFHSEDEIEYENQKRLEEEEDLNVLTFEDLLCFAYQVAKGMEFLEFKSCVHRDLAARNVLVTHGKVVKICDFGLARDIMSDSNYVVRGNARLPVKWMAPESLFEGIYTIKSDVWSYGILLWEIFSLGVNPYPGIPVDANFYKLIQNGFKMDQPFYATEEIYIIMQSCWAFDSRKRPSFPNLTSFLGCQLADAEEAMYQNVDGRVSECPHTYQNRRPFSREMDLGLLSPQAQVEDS


What was measured:
[1] = biological target: T1, human FLT3 (Fms Related Receptor …); experiment: flow cytometry on FLT3-expressing REH cells
Source text: Cells were washed five times with flow buffer and stained with anti-human IgG Fc antibody conjugated to Alexa Fluor 488 (Jackson Immunoresearch Laboratories, 109-545-008). Cells were stained with 7-AAD (7-AAD Viability Staining Solution, Biolegend 420404) followed by flow cytometry analysis. […] The antibodies used are as described in Example 1.

[2] = biological target: T1, human FLT3 (Fms Related Receptor …); experiment: flow cytometry, chimeric antibody on FLT3-expressing REH cells
[3] = biological target: T2, human CD3 on the surface of T cells / Jurkat cells (human, UniProt P07766 23-207; P09693 23-182; P04234 22-171); experiment: flow cytometry on primary human pan T cells from cord blood
T2 construct: whole, on cells

[4] = biological target: T2, human CD3 on the surface of T cells / …; experiment: flow cytometry on CD3-expressing Jurkat cells
Experimental: The mouse heavy and light chain variable regions of SP34 clone were humanized and two humanized variants were tested for their binding affinities to CD3 in Jurkat cells (ATCC) expressing high levels of CD3. Jurkat cells were stained with various concentrations of humanized SP34 variants 2 and 6 (variant 2 VH and VL are SEQ ID NOs: 67 and 68, respectively; variant 6 VH and VL are SEQ ID NOs: 69 and 70, respectively) antibodies prepared in PBS+2% BCS+2 mM EDTA (flow buffer). Cells were washed five times with flow buffer and stained with anti-human IgG Fc antibody conjugated to Alexa Flour 488 (Jackson Immunoresearch Laboratories, 109-095-008). Cells were stained with 7-AAD (7-AAD Viability Staining Solution, Biolegend 420404) followed by flow cytometry analysis.

[5] = biological target: T2, human CD3 on the surface of T cells / …; experiment: flow cytometry on CD3+ human T cells
Source text: (§1) Cells were washed five times with flow buffer and stained with anti-human IgG lambda antibody conjugated to FITC (Southern Biotech 2070-02). Cells were stained with 7-AAD (7-AAD Viability Staining Solution, Biolegend 420404) followed by flow cytometry analysis.

[6] = biological target: T1, human FLT3 (Fms Related Receptor …); experiment: flow cytometry on FLT3+ REH cells
Source text: as §1

[7] = biological target: T1, human FLT3 (Fms Related Receptor …); experiment: cell-based or functional assay
[8] = biological target: T3, Recombinant Human CD3 epsilon Fc Chimera Protein (R&D, no. 9850-CD-050) (human, UniProt P07766 23-126); experiment: ELISA, plate coated with recombinant human CD3 epsilon Fc chimera
T3 construct: Bought reagent; Fc part of the bought chimera not given
Experimental: The plate was washed with wash buffer (PBS (Caisson Labs, no. PBL06)+0.05% Tween20 (ThermoFisher, no. 28320)) The plate was blocked with blocking buffer (PBS (Caisson Labs, no. PBL06)+1% (w/v) BSA (Rockland, no. BSA-50)+0.05% Tween20 (ThermoFisher, no 28320)) for two hours at room temperature (RT). Plate was washed twice with wash buffer. […] Plate was washed 4× with wash buffer. Plate was incubated with 100 μL per well of 1:200 goat anti-human lambda-HRP secondary antibody (SouthernBiotech, no. 2070-05) for one hour at RT. Plate was washed 4× with wash buffer. Plate was incubated with 100 μL per well of TMB Substrate (ThermoFisher Cat #34029) for 20 minutes protected from light. Stop solution (2N H₂SO₄) was added to each well. Absorbance of wells was recorded at 450 nm on an Envision plate reader (PerkinElmer). […] Variable slope (four parameters) curve was fit to the data and EC50 was used to compare binding affinities.

T2 sequence (P07766 23-207, chain 1 of 3): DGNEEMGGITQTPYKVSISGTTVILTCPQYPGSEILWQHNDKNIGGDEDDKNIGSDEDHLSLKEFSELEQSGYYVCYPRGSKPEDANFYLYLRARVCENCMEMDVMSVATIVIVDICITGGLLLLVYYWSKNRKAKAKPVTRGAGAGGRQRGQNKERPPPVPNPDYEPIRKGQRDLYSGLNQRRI
T2 sequence (P09693 23-182, chain 2 of 3): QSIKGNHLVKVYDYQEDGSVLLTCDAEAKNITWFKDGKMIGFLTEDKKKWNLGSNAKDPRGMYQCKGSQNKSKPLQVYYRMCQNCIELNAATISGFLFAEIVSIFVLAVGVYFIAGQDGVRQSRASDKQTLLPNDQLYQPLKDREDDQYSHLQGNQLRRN
T2 sequence (P04234 22-171, chain 3 of 3): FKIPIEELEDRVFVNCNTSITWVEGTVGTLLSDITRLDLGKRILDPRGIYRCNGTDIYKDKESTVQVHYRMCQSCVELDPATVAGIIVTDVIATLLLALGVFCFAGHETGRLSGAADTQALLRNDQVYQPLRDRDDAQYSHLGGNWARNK
T3 sequence (P07766 23-126, change not shown): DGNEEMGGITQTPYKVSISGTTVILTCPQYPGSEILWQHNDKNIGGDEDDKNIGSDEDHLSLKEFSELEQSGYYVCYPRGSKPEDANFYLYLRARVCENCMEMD

Binder	EC50 [5]	EC50 [6]	EC50 of cytotoxicity against REH cells [7]	also measured
humanized 118BA variant 1 (antibody, V domains shown, detected with anti-human IgG Fc; also called 18BA-v1; 1-18BA-v1) VH: QVTLKESGPTLVKPTQTLTLTCTFSGFSLSTSTMGVGWIRQPPGKALEWLAHILWNDSKRYNPSLKSRLTITKDTSKKQVVLTMTNMDPVDTATYYCARIVYYSTYVGYFDVWGQGTTVTVSS VL: DIQMTQSPSSLSASVGDRVTITCRASQEISGYLSWLQQKPGKAIKRLIYAASTLQSGVPSRFSGSRSGSDYTLTISSLQPEDFATYYCLQYASYPFTFGQGTKLEIK				EC50 [1]: 0.4 nM
humanized 118BA variant 5 (antibody, V domains shown, detected with anti-human IgG Fc; also called 18BA-v5) VH: QITLKESGPTLVKPTQTLTLTCTFSGFSLSTSTMGVGWIRQPPGKALEWLAHILWNDDKRYGPSLKSRLTITKDTSKKQVVLTMTNMDPVDTATYYCARIVYYSTYVGYFDVWGQGTTVTVSS VL: EIVMTQSPGTLSLSPGERATLSCRASQEISGYLSWLQQKPGQAIRRLIYAASTRATGIPDRFSGSRSGSDYTLTISRLEPEDFAVYYCLQYASYPFTFGQGTKLEIK				EC50 [1]: 0.72 nM
chimeric monoclonal anti-FLT3 antibody 118BA (antibody, V domains shown) VH: QVTLKESGPGILQPSQTLSLTCSFSGFSLSTSTMGVGWIRQPSGKGLEWLLHILWNDSKYYNPALKSRLTISKDTYNKQVFLKIANVDTADTATYYCARIVYYSTYVGYFDVWGAGTTVTVSS VL: DIQMTQSPSSLSASLGERVSLTCRASQEISGYLSWLQQKPDGTIKRLIYAASTLHSGVPKRFSGSRSGSDYSLTISRLESEDVADYYCLQYASYPFTFGSGTKLEIK				EC50 [2]: 0.77 nM
chimeric monoclonal anti-CD3 IgG SP34 clone (antibody, V domains shown) VH: EVQLVESGGGLVQPKGSLKLSCAASGFTFNTYAMNWVRQAPGKGLEWVARIRSKYNNYATYYADSVKDRFTISRDDSQSILYLQMNNLKTEDTAMYYCVRHGNFGNSYVSWFAYWGQGTLVTVSS VL: QAVVTQESALTTSPGETVTLTCRSSTGAVTTSNYANWVQEKPDHLFTGLIGGTNKRAPGVPARFSGSLIGDKAALTITGAQTEDEAIYFCALWYSNLWVFGGGTKLTVL				EC50 [3]: 3.2 nM
humanized SP34 variant 6 (antibody, human IgG1, V domains shown, also called humSP34-v6; humanized anti-CD3 SP34 variant 6) VH: EVQLVESGGGLVQPGGSLKLSCAASGFTFNTYAMNWVRQASGKGLEWVGRIRSKYNNYATYYADSVKGRFTISRDDSKNTAYLQMNSLKTEDTAVYYCVRHGNFGNSYVSWFAYWGQGTLVTVSS VL: QAVVTQEPSFSVSPGGTVTLTCGSSTGAVTTSNYANWVQQTPGQAFRGLIGGTNKRSSGVPDRFSGSLLGDKAALTITGAQADDESDYYCALWYSNLWVFGGGTKLTVLG				EC50 [4]: 3.2 nM
humanized SP34 variant 2 (antibody, human IgG1, V domains shown, also called humSP34-v2; humanized anti-CD3 SP34 variant 2) VH: EVQLVESGGGLVQPGGSLKLSCAASGFTFNTYAMNWVRQASGKGLEWVGRIRSKYNNYATYYADSVKGRFTISRDDSKSTAYLQMNSLKTEDTAVYYCVRHGNFGNSYVSWFAYWGQGTLVTVSS VL: QAVVTQEPSLTVSPGGTVTLTCGSSTGAVTTSNYANWVQQKPGQAFRTLIGGTNKKHPWTPARFSGSLLGGKAALTLSGAQPEDEAEYYCALWYSNLWVFGGGTKLTVLG				EC50 [4]: 2.38 nM
CD3xFLT3 bispecific antibody 118BA #3C (bispecific antibody, human IgG1, lambda) heavy: not shown light: QAVVTQEPSFSVSPGGTVTLTCGSSTGAVTTSNYANWVQQTPGQAFRGLIGGTNKRSSGVPDRFSGSLLGDKAALTITGAQADDESDYYCALWFSNHWVFGGGTKLTVLGGQPKAAPSVTLFPPSSEELQANKATLVCLISDFYPGAVTVAWKADSSPVKAGVETTTPSKQSNNKYAASSYLSLTPEQWKSHRSYSCQVTHEGSTVEKTVAPTECS	32 nM	0.9 nM	0.013 nM	
CD3xFLT3 bispecific antibody 118BA #3A (bispecific antibody, human IgG1, lambda) heavy: not shown light: QAVVTQEPSFSVSPGGTVTLTCGSSTGAVTTSNYANWVQQTPGQAFRGLIGGTNKRSSGVPDRFSGSLLGDKAALTITGAQADDESDYYCALWYSNLWVFGGGTKLTVLGGQPKAAPSVTLFPPSSEELQANKATLVCLISDFYPGAVTVAWKADSSPVKAGVETTTPSKQSNNKYAASSYLSLTPEQWKSHRSYSCQVTHEGSTVEKTVAPTECS	15.5 nM	1.18 nM	0.013 nM	
CD3xFLT3 bispecific antibody 118BA #3B (bispecific antibody, human IgG1, lambda) heavy: not shown light: QAVVTQEPSFSVSPGGTVTLTCGSSTGAVTTSNYANWVQQTPGQAFRGLIGGTNKRVSGVPDRFSGSLLGDKAALTITGAQADDESDYYCALWFSNHWVFGGGTKLTVLGGQPKAAPSVTLFPPSSEELQANKATLVCLISDFYPGAVTVAWKADSSPVKAGVETTTPSKQSNNKYAASSYLSLTPEQWKSHRSYSCQVTHEGSTVEKTVAPTECS	13.6 nM	1.23 nM	0.017 nM	
CD3xFLT3 bispecific antibody 118BA #3a1 (bispecific antibody, human IgG1, lambda) heavy: not shown light: QAVVTQEPSFSVSPGGTVTLTCGSSTGAVTTSNYANWVQQTPGQAFRGLIGGTNKRSSGVPDRFSGSLLGDKAALTITGAQADDESDYYCALWFSNHWVFGGGTKLTVLGGQPKAAPSVTLFPPSSEELQANKATLVCLISDFYPGAVTVAWKADSSPVKAGVETTTPSKQSNNKYAASSYLSLTPEQWKSHRSYSCQVTHEGSTVEKTVAPTECS		1.17 nM	0.33 nM	EC50 [8]: 0.0331 µg/mL and 0.16 nM
